Data: the supplement of paper PMC9170038

Tested on: MS2 coat protein
Experiment: apparent KD of MS2 coat protein; designed switch direction (-1 OFF switch, 1 ON switch): 1; higher = weaker reporter binding
Method in brief: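 RNA switches sharing common flanks were transcribed by stalled E. coli RNA polymerase on Illumina chips. A doubling series of SNAP-549-labelled MS2 coat protein, from 0.7 or 1.5 nM to 3 µM, was applied in Tris-HCl pH 7.5 buffer with KCl, MgCl2, BSA, DTT, tRNA and Tween-20. Each step lasted 0.8–1.5 h at the bottom of the series and 10–20 min at the top. Normalised cluster fluorescence was curve-fitted, giving apparent KD as the per-design median over clusters.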

[1] = Eterna round: R95, input ligand: FMN 200 uM
[2] = Eterna round: R95, input ligand: microRNA oligo, concentration not stated
[3] = Eterna round: R95, input ligand: none
[4] = input ligand: microRNA oligo, concentration not stated

UCUUAUAAUAAUAUAAUUCAUUUGAUAAAACAUGAGGAUCACCCAUGUCCUACUUUUUUUAAUCAUUUUAACUUUAA [The 7 c's] (puzzle: Sensor for hsa-mir-208a)
apparent KD of MS2 coat protein [1]: 45.3 nM | apparent KD of MS2 coat protein [2]: 62.6 nM | apparent KD of MS2 coat protein [3]: 63.5 nM

GAGAGAGGGUGAGGAUAUAGAGUAAUAAUGAUACUAGAAGGCACAGACAUGAGGAUCACCCAUGUGGGAAUAAUCCAGAGAGAG [Parity 5 - Jieux - Same State NG 1] (Eterna round: R96, puzzle: Same State NG 1)
apparent KD of MS2 coat protein (input ligand: FMN 200 uM): 300 nM | apparent KD of MS2 coat protein [4]: 259 nM | apparent KD of MS2 coat protein (input ligand: none): 401 nM

AUUAAACAUGAGGAUCACCCAUGUCAACAAAGUCGAGGAUAUGGGCAUAUUAUCUAAUAACCAGAAGGCGAAUAAU [salish99_ss1_r3_085] (puzzle: Same State 1)
apparent KD of MS2 coat protein [1]: 43.8 nM | apparent KD of MS2 coat protein [2]: 194 nM | apparent KD of MS2 coat protein [3]: 210 nM

UAUAUUAUGGUAGGAUAUCUAGGAUAUGGGAAGAGCUAAGCUUGGAAGUCACUUCACCCAGAAGGAGAGAAGGACCAUAAUAUU [pwkr ssNG2 2FMN + F9.5] (Eterna round: R96, puzzle: Same State NG 2)
apparent KD of MS2 coat protein (input ligand: FMN 200 uM): 105 nM | apparent KD of MS2 coat protein [4]: 240 nM | apparent KD of MS2 coat protein (input ligand: none): 76.7 nM

UGUUGUAUUACAGGAUAUCUAUGUUUUUUAUUUAGAGAAGGGUAUUCACAUGAGGAUCACCCAUGUAUAUACGAGGAAGUUGUG [JMF's solution 57] (Eterna round: R96, puzzle: Same State NG 1)
apparent KD of MS2 coat protein [4]: 40.4 nM

AAAAUUGAAUUACAUCUGCUCGUCAUACAACAUGAGGAUCACCCAUGUAACAUCAAACAACCAACCAAACACAAAUC [Ceeslage] (Eterna round: R96, puzzle: Sensor for hsa-mir-208a)
apparent KD of MS2 coat protein (input ligand: FMN 200 uM): 20.1 nM | apparent KD of MS2 coat protein [4]: 17.5 nM | apparent KD of MS2 coat protein (input ligand: none): 22.3 nM

ACUUAGUACAAUUUAGAUCUACAUGAGGAUCACCCAUGUACUGAGGAUAUCAGCUCGAAUAGAGCUGAGAAGGCAGUAGUACUA [SSNG3/9-A1] (Eterna round: R96, puzzle: Same State NG 3)
apparent KD of MS2 coat protein (input ligand: FMN 200 uM): 47.4 nM | apparent KD of MS2 coat protein [4]: 42.6 nM | apparent KD of MS2 coat protein (input ligand: none): 50.2 nM

CCGUAAUAUGGAGGAUAUGGAGCCUUAUUGGCUCCAGAAGGUCAUAACACAUGAGGAUCACCCAUGUCGGCGGUCAAUAGACCG [Eli NG1ss - 76] (Eterna round: R96, puzzle: Same State NG 1)
apparent KD of MS2 coat protein (input ligand: FMN 200 uM): 19.4 nM | apparent KD of MS2 coat protein [4]: 74.9 nM | apparent KD of MS2 coat protein (input ligand: none): 68.3 nM

AGAUGUUAAUCAGGAUAUGGGCCCGUGAGGAUCACCCACGGAAAGUAGGUCCAACAGGGCCCAGUCUAGAAGGGAUGGCUAACA [malcolm 80 ssNG2 F5+F7.2] (Eterna round: R96, puzzle: Same State NG 2)
apparent KD of MS2 coat protein (input ligand: FMN 200 uM): 112 nM | apparent KD of MS2 coat protein [4]: 19.8 nM | apparent KD of MS2 coat protein (input ligand: none): 84 nM

AGCCUGAGUCGAGGAUAUUAUGGAUCAAUUAAUACAUGAGGAUCACCCAUGUAAUUAAUUUAACAUGAGAAGGCGACUCAGGCA [SSNG2/10-A1] (Eterna round: R96, puzzle: Same State NG 2)
apparent KD of MS2 coat protein (input ligand: FMN 200 uM): 7.72 nM | apparent KD of MS2 coat protein [4]: 5.43 nM | apparent KD of MS2 coat protein (input ligand: none): 8.66 nM

AUUAUACAUGAGGAUCACCCAUGUAAUUAAUCUAGUAAGAUCUAGGAUAUCAGCUCGUUUAGAGCUGAGAAGGAGAUCACAUGU [SSNG3/20-D3] (Eterna round: R96, puzzle: Same State NG 3)
apparent KD of MS2 coat protein [4]: 38 nM

UUGUUUAGAAAUUAACAUGAGGAUCACCCAUGUAUUGGAUCAGAGGAUAUGCAUGUUUGAUUGUAGCAGAAGGCUGAUUGUUGA [JR_SSNG3_Sub029] (Eterna round: R96, puzzle: Same State NG 3)
apparent KD of MS2 coat protein [4]: 37.3 nM

AGGCUGAGUCGAGGAUAUUAUGGAUCCUCUAAUACAUGAGGAUCACCCAUGUAAUUAAUUAUACAUGAGAAGGUGACUCAGCCA [SSNG2/12-B3] (Eterna round: R96, puzzle: Same State NG 2)
apparent KD of MS2 coat protein (input ligand: FMN 200 uM): 612 nM | apparent KD of MS2 coat protein [4]: 129 nM | apparent KD of MS2 coat protein (input ligand: none): 280 nM

ACAUGAGACUUAGGAUAUCUUGUACCUACAUGUGACAUGAGGAUCACCCAUGUGGUAAGUAUGACAGAGAAGGAAGAGAUAUGU [Equivalance 68 - Jieux - Same State NG 2] (Eterna round: R96, puzzle: Same State NG 2)
apparent KD of MS2 coat protein (input ligand: FMN 200 uM): 40.4 nM | apparent KD of MS2 coat protein [4]: 49.9 nM | apparent KD of MS2 coat protein (input ligand: none): 79.7 nM

AAGUGAAUAGUGAUUACAUGAGGAUCACCCAUGUGGUGGAUGCAGGAUAUUAUUAGACCGUACAAUAAGAAGGGCGUAAUCACC [Eternabot solution 44] (Eterna round: R96, puzzle: Same State NG 3)
apparent KD of MS2 coat protein (input ligand: FMN 200 uM): 226 nM | apparent KD of MS2 coat protein [4]: 270 nM | apparent KD of MS2 coat protein (input ligand: none): 403 nM

UGUUGUAUUACAGGAUAUCUAGUAUAUUUAUUUAGAGAAGGGUAUUCACAUGAGGAUCACCCAUGUAUAUACGAGGAAGUUGUG [JMF's solution 37] (Eterna round: R96, puzzle: Same State NG 1)
apparent KD of MS2 coat protein [4]: 29.6 nM

GAGAGAUGAUUAGGAUAUUCGGUGAUAAUGAUAGAAGAAGGAAUUGACAUGAGGAUCACCCAUGUGGGAAUAAUCCAGAGAGAG [Parity 21 - Jieux - Same State NG 1] (Eterna round: R96, puzzle: Same State NG 1)
apparent KD of MS2 coat protein (input ligand: FMN 200 uM): 148 nM | apparent KD of MS2 coat protein [4]: 77.5 nM | apparent KD of MS2 coat protein (input ligand: none): 161 nM

ACAUGAGGAUCACCCAUGUAUAGAAUUGAAUGUUAAGAUACGUAGGAUAUCGAGUUUAGUAUGAUCGAGAAGGACGAUCUGAUA [JR_SSNG3_Sub065] (Eterna round: R96, puzzle: Same State NG 3)
apparent KD of MS2 coat protein [4]: 14.5 nM

GCGGAACGGGCCGACAUGAGGAUCACCCAUGUGGCCUCAUGUAAGGAUAUCGGGAAGAAGAAAACCGAGAAGGUACGGUGACGC [AK SSNG3-V2-31] (Eterna round: R96, puzzle: Same State NG 3)
apparent KD of MS2 coat protein (input ligand: FMN 200 uM): 47.2 nM | apparent KD of MS2 coat protein [4]: 15.6 nM | apparent KD of MS2 coat protein (input ligand: none): 107 nM

UAUGAACAUGAGGAUCACCCAUGUGGAAAGGACACAGGAUAUCAUCUCGCACGUGCGAUAUGAGAAGGGUGAUGGU [Quedorinri] (puzzle: Same State 1)
apparent KD of MS2 coat protein [2]: 96.3 nM

CGUAGGCCUCUCAACAUGAGGAUCACCCAUGUACGUGAAACGUAGGAUAUCACACAACUAAUGUGUGAGAAGGGCGCGCCGGAG [Eternabot solution 25] (Eterna round: R96, puzzle: Same State NG 3)
apparent KD of MS2 coat protein [4]: 91.4 nM

GGACGUCAACUCACUAAUUAACAUGAGGAUCACCCAUGUUCACAGGAUAUGAGUCCGAUUAGGACUCAGAAGGGUGAGACGUCC [Fiskers NG3ss - 48] (Eterna round: R96, puzzle: Same State NG 3)
apparent KD of MS2 coat protein (input ligand: FMN 200 uM): 20.3 nM | apparent KD of MS2 coat protein [4]: 19.7 nM | apparent KD of MS2 coat protein (input ligand: none): 21.1 nM

UGUACCUUCACAGGAUAUCAUGCGAAAAUUGCGUGAGAAGGGUGAAUACUGUCUUACUAAGAGCACAUGAGGAUCACCCAUGUA [SameState NG1 #58] (Eterna round: R96, puzzle: Same State NG 1)
apparent KD of MS2 coat protein (input ligand: FMN 200 uM): 269 nM | apparent KD of MS2 coat protein [4]: 198 nM | apparent KD of MS2 coat protein (input ligand: none): 296 nM

CGAAGUCGUAGAGGAUAUGGGUGGCCGGAGUCAACAUGAGGAUCACCCAUGUGCUAAUAUGAGAUCCAGAAGGCUGCGAACGGG [Eternabot solution 16] (Eterna round: R96, puzzle: Same State NG 2)
apparent KD of MS2 coat protein (input ligand: FMN 200 uM): 57.1 nM | apparent KD of MS2 coat protein [4]: 31.4 nM | apparent KD of MS2 coat protein (input ligand: none): 430 nM

UGGUACAUGGGAGGAUAUCAUGUAGAAACAUGAGGAUCACCCAUGUAGAUGGCCGGUAACCGGAAUGAGAAGGCCCAUGUACCU [JL SSNG1 3.63] (Eterna round: R96, puzzle: Same State NG 2)
apparent KD of MS2 coat protein (input ligand: FMN 200 uM): 22.7 nM | apparent KD of MS2 coat protein [4]: 18.9 nM | apparent KD of MS2 coat protein (input ligand: none): 30.6 nM

GUGGUCAGACAUGAGGAUCACCCAUGUGGAAUAAAUAAGGGUCAGGAUAUGGAAUAUAGGAUAUACCAGAAGGGAUGGUUGGUG (Eterna round: R96, puzzle: Same State NG 3)
apparent KD of MS2 coat protein (input ligand: FMN 200 uM): 134 nM | apparent KD of MS2 coat protein [4]: 70.2 nM | apparent KD of MS2 coat protein (input ligand: none): 92.8 nM

GCUCGAAUCACAGCCAACAUGAGGAUCACCCAUGUAUGUUGGUAGGAUAUCGUUUCUAAGGGAAACGAGAAGGGCCGAACGAGC [SameState NG3 #10] (Eterna round: R96, puzzle: Same State NG 3)
apparent KD of MS2 coat protein (input ligand: FMN 200 uM): 171 nM | apparent KD of MS2 coat protein [4]: 151 nM | apparent KD of MS2 coat protein (input ligand: none): 163 nM

GACAAUCUAUCUGAGGAUAUCAUGAAAAAAACAUGAGGAUCACCCAUGUGCAGGAAAACUGCAUAUGAGAAGGCAGAUAGAUUGA [salish99_SS2_r3_009] (Eterna round: R96, puzzle: Same State 2)
apparent KD of MS2 coat protein [4]: 453 nM

AGUCCAGCCUGAGCUGGACAAAAGCAUGUACAUGAGGAUCACCCAUGUCAUGUACAAGCUUUUUGCUCGAAAUAAUA [Mat - hsa-mir-208a - Mod of JL - D32] (puzzle: Sensor for hsa-mir-208a)
apparent KD of MS2 coat protein [1]: 653 nM | apparent KD of MS2 coat protein [2]: 14.6 nM | apparent KD of MS2 coat protein [3]: 938 nM

GAAAUAAUGAAAGGAUAUACAUGAGGAAUUCUCGUAGAAGGUUCAUGACAUGAGGAUCACCCAUGUAUCGCUCGAAAGAGCGAG [Mat - Same State NG 1 - JL mod - D31] (Eterna round: R96, puzzle: Same State NG 1)
apparent KD of MS2 coat protein (input ligand: FMN 200 uM): 510 nM | apparent KD of MS2 coat protein [4]: 152 nM | apparent KD of MS2 coat protein (input ligand: none): 64 nM

GGUCCAGCCUGAGCUGGACAAAAGCAUGUACAUGAGGAUCACCCAUGUCAUGUACAAGCUUUUUGCUCGUCUAAAUA [Mat - hsa-mir-208a - 90] (puzzle: Sensor for hsa-mir-208a)
apparent KD of MS2 coat protein [1]: 464 nM | apparent KD of MS2 coat protein [2]: 16.3 nM | apparent KD of MS2 coat protein [3]: 557 nM
